Legend:
Format in all cases: biochemical
[1] = HTP-analysis of yeast culture supernatants, no challenge (MUGal hydrolysis); details: activity of the variant/activity of Rd2BB (SEQ ID NO: 10), yeast supernatant
Outline: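 GLA variants expressed in yeast INVSc1, secreted into SD-Ura broth over 66-84 h at 30° C; clarified supernatants tested without challenge. Supernatant mixed with McIlvaine buffer pH 4.8 and 2 mM MUGal (citrate/KCl, pH 4.6), 37° C for 30-180 min, carbonate-quenched, fluorescence Ex 355/Em 448 nm.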

[2] = HTP-analysis of supernatants pretreated with base (MUGal hydrolysis); details: challenge at pH 7.6; activity of the variant/activity of Rd2BB (SEQ ID NO: 10); yeast supernatant
Outline: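 Supernatants from INVSc1 yeast expressing GLA variants (SD-Ura, 66-84 h, 30° C) were mixed with McIlvaine buffer pH 7.0-8.2 or 200 mM sodium bicarbonate pH 9.1-9.7 and held 1-18 h at 37° C. Residual activity was then measured on MUGal at pH 4.8/4.3, 37° C, 30-180 min, by fluorescence (Ex 355/Em 448 nm).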

[3] = HTP-analysis of supernatants pretreated with acid (MUGal hydrolysis); details: challenge at pH 4.2; activity of the variant/activity of Rd2BB (SEQ ID NO: 10); yeast supernatant
Outline: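 GLA variants were secreted from INVSc1 yeast grown 66-84 h at 30° C. in SD-Ura with 2% glucose; supernatants were mixed with McIlvaine buffer pH 3.3-4.3 and held at 37° C. for 1-3 h. Residual activity on MUGal at pH 4.8 was then measured by fluorescence.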

Molecule | Relative Activity of GLA Variants After No Challenge (NC) [1] | Relative Activity of GLA Variants After Challenge at pH 7.6 [2] | Relative Activity of GLA Variants After Challenge at pH 4.2 [3]
210 (protein, Synthetic Polypeptide sequence of Variant No. 210 of mature Human GLA) LDNGLARTPTMGWLHWERFMCNLDCQEEPDSCISEKLFMEMAELMVSEGWKDAGYEYLCIDDCWMAPQRDSEGRLQADPQRFPHGIRQLANYVHSKGLKLGIYADVGNKTCAGFPGSFGYYDIDAQTFADWGVDLLKFDGCYCDSLENLADGYKHMSLALNRTGRSIVYSCEWPLYMWPFQKPNYTEIRQYCNHWRNFADIDDSWASIKSILDWTSFNQERIVDVAGPGGWNDPDMLVIGNFGLSWNQQVTQMALWAIMAAPLFMSNDLRHISPQAKALLQDKDVIAINQDPLGKQGYQLRQGDNFEVWERPLSGLAWAVAMINRQEIGGPRSYTIAVASLGKGVACNPACFITQLLPVKRKLGLYNWTSRLRSHINPTGTVLLQLENTMQMSKDLLL | ++ (++ = 1.5 to 2.5 relative activity over Rd2BB (SEQ ID NO: 10)) | ++ (++ = 1.5 to 2.5 relative activity over Rd2BB (SEQ ID NO: 10)) | ++ (++ = 1.5 to 2.5 relative activity over Rd2BB (SEQ ID NO: 10))
211 (protein, Synthetic Polypeptide sequence of Variant No. 211 of mature Human GLA) LDNGLARTPTMGWLHWERFMCNLDCQEEPDSCISEKLFMEMAELMVSEGWKDAGYEYLCIDDCWMAPQRDSEGRLQADPQRFPHGIRQLANYVHSKGLKLGIYADVGNKTCAGFPGSFGYYDIDAQTFADWGVDLLKFDGCYCDSLENLADGYKHMSLALNRTGRSIVYSCEWPLYMWPFQKPNYTEIRQYCNHWRNFADIDDSWASIKSILDWTSFNQERIVDVAGPGGWNDPDMLVIGNFGLSWNQQVTQMALWAIMAAPLFMSNDLRHISPQAKALLQDKDVIAINQDPLGKQGYQLRQGDNFEVWERPLSGLAWAVAMINRQEIGGPRSYTIAVASLGKGVACNPACFITQLLPVKRKLGLYNWTSRLRSHVNPTGTVLLQLENTMQMSKDLLL | ++ (++ = 1.5 to 2.5 relative activity over Rd2BB (SEQ ID NO: 10)) | ++ (++ = 1.5 to 2.5 relative activity over Rd2BB (SEQ ID NO: 10)) | ++ (++ = 1.5 to 2.5 relative activity over Rd2BB (SEQ ID NO: 10))
212 (protein, Synthetic Polypeptide sequence of Variant No. 212 of mature Human GLA) LDNGLARTPTMGWLHWERFMCNLDCQEEPDSCISEKLFMEMAELMVSEGWKDAGYEYLCIDDCWMAPQRDSEGRLQADPQRFPHGIRQLANYVHSKGLKLGIYADVGNKTCAGFPGSFGYYDIDAQTFADWGVDLLKFDGCYCDSLENLADGYKHMSLALNRTGRSIVYSCEWPLYMWPFQKPNYTEIRQYCNHWRNFADIDDSWASIKSILDWTSFNQERIVDVAGPGGWNDPDMLVIGNFGLSWNQQVTQMALWAIMAAPLFMSNDLRHISPQAKALLQDKDVIAINQDPLGKQGYQLRQGDNFEVWERPLSGLAWAVAMINRQEIGGPRSYTIAVASLGKGVACNPACFITQLLPVKRKLGLYNWTSRLKSHVNPTGTVLLQLENTMQMSKDLLL | ++ (++ = 1.5 to 2.5 relative activity over Rd2BB (SEQ ID NO: 10)) | ++ (++ = 1.5 to 2.5 relative activity over Rd2BB (SEQ ID NO: 10)) | ++ (++ = 1.5 to 2.5 relative activity over Rd2BB (SEQ ID NO: 10))

Reference: patent US11278600B2, “Human alpha-galactosidase variants” (Codexis, Inc., priority 2014, dated 2022)
